Assay results from US20060026702A1 (DUKE UNIVERSITY, published 2006).

Biological target: T1, HA epitope-tagged PI3Kγ (pCMV-PI3 Kp110γ wild type) (Homo sapiens (Human), UniProt P48736 1-1102)
T1 construct: Full-length wild type with HA tag, expressed in transfected NIH-3T3 cells; also called HA-PI3Kγ
Experiment: co-immunoprecipitation from cytosolic extracts of transfected NIH-3T3 cells

T1 sequence (P48736 other isoform, or with tags, fused parts or gaps limits assumed): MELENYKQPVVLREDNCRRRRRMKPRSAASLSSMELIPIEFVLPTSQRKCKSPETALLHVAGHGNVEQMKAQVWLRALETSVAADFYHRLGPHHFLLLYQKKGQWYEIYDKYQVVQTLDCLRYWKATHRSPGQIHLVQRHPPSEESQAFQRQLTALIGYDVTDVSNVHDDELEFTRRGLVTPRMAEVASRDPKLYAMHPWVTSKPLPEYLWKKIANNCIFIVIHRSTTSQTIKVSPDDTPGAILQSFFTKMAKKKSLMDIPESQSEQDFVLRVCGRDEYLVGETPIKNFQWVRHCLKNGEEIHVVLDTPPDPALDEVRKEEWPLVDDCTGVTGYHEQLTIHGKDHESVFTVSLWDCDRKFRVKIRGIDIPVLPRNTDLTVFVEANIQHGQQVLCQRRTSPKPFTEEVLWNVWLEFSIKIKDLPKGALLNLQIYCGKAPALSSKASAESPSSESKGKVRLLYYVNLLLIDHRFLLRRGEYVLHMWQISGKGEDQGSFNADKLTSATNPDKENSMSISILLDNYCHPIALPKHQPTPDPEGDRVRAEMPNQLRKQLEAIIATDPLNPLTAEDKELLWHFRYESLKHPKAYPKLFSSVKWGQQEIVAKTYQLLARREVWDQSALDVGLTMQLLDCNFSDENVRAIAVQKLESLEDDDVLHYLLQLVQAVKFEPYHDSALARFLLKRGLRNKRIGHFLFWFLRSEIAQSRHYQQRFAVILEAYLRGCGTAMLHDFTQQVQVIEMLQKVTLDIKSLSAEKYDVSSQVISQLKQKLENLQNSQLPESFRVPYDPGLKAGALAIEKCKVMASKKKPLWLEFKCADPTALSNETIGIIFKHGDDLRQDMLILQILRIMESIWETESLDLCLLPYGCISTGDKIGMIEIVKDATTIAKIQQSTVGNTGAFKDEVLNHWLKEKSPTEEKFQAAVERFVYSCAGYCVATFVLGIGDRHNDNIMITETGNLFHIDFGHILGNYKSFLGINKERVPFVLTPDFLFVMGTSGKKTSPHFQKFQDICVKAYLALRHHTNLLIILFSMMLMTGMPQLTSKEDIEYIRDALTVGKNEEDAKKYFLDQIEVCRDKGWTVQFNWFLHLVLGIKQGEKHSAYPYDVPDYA

- binding result: binds
B1: β-adrenergic receptor kinase 1 (βARK1), bovine cDNA expressed in transfected cells (enzyme, UniProt P21146 1-689, looked up)
chain: MADLEAVLADVSYLMAMEKSKATPAARASKKILLPEPSIRSVMQKYLEDRGEVTFEKIFSQKLGYLLFRDFCLKHLEEAKPLVEFYEEIKKYEKLETEEERLVCSREIFDTYIMKELLACSHPFSKSAIEHVQGHLVKKQVPPDLFQPYIEEICQNLRGDVFQKFIESDKFTRFCQWKNVELNIHLTMNDFSVHRIIGRGGFGEVYGCRKADTGKMYAMKCLDKKRIKMKQGETLALNERIMLSLVSTGDCPFIVCMSYAFHTPDKLSFILDLMNGGDLHYHLSQHGVFSEADMRFYAAEIILGLEHMHNRFVVYRDLKPANILLDEHGHVRISDLGLACDFSKKKPHASVGTHGYMAPEVLQKGVAYDSSADWFSLGCMLFKLLRGHSPFRQHKTKDKHEIDRMTLTMAVELPDSFSPELRSLLEGLLQRDVNRRLGCLGRGAQEVKESPFFRSLDWQMVFLQKYPPPLIPPRGEVNAADAFDIGSFDEEDTKGIKLLDSDQELYRNFPLTISERWQQEVAETVFDTINAETDRLEARKKTKNKQLGHEEDYALGKDCIMHGYMSKMGNPFLTQWQRRYFYLFPNRLEWRGEGEAPQSLLTMEEIQSVEETQIKERKCLLLKIRGGKQFVLQCDSDPELVQWKKELRDAYREAQQLVQRVPKMKNKPRSPVVELSKVPLIQRGSANGL
notes: Over-expressed in NIH-3T3 or HEK 293 cells and immunoprecipitated with a βARK1 monoclonal antibody; also called GRK2; β3ARK1
